Experimental data taken from patent publication US20200354449A1 (NBE THERAPEUTICS, published 2020).

What follows are binders tested against T1, mouse ROR2-TwinStrep (mouse, UniProt Q9Z138 34-403) (assay: ELISA, panel 'Coating: Mouse ROR2' (mouse ROR2-TwinStrep 2 µg/mL), 3-fold dilution series of antibody, HRP anti-human IgG, OD 490 nm).
T1 construct: also called mROR2; murine ROR2; not shown: TwinStrep tag
Method: (§1) Binding of antibodies to hROR2, mouse ROR2 (mROR2) and cynomolgus ROR2 (cROR2) was evaluated in an ELISA-based assay. For this, ELISA plates were coated with 50 μL of 2 μg/ml, in sodium bicarbonate coating buffer (0.1M Na₂CO₃, 0.1M NaHCO₃, pH 9.6), of: (a) an anti-human Fc (Jackson Immunoresearch, 109-006-098), (b) hROR2-TwinStrep, (c) cynomolgus ROR2-TwinStrep or (d) mouse ROR2-TwinStrep. Following 1-2-days incubation at 4° C., plates were washed with PBS supplemented with 0.05% (v/v) of Tween 20 and blocked with 150 μL of PBS supplemented with 0.05% (v/v) of Tween 20 and 3% of bovine serum albumin (BSA). Thereafter, 3-fold or 4-fold dilutions of purified antibodies starting at 0.5 or 2 μg/ml, respectively, in PBS supplemented with 1% (w/v) bovine serum albumin (BSA) and 0.05% (v/v) of Tween 20 were added. Following 1 h incubation at 37° C., plates were washed with PBS supplemented with 0.05% (v/v) of Tween 20 prior to addition of HRP-conjugated anti-human IgG (Jackson Immunoresearch, 109-036-008). Following further plate washing, plates were developed with 50 μL of Sigmafast OPD Tablet set (Sigma, P9187) and the reaction stopped by addition of 2M sulfuric acid. Plates were read on an ELISA plate reader (OD 490).

T1 sequence (Q9Z138 34-403 V372M): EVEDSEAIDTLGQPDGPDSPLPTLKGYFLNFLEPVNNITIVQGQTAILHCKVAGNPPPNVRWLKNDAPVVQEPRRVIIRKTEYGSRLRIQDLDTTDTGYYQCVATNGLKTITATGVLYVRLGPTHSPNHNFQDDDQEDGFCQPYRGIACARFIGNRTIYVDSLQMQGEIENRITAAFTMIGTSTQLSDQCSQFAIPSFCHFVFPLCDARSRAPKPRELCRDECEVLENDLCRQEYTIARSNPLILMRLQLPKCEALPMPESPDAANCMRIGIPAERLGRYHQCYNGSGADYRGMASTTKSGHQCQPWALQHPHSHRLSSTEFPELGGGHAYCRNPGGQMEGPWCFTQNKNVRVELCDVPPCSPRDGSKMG

Binder | binding result
GK-5A1 (mAb271) (antibody, human IgG1, Human IgG1/kappa; not shown: Strep tag) heavy: not shown light: EIVLTQSPSTLSASVGDRVTITCRASQSISSWLAWYQQKPGKAPKLLIYKASSLESGVPSRFSGSGSGTEFTLTISSLQPDDFATYYCQQYNSYWTFGQGTKVDIKRTVAAPSVFIFPPSDEQLKSGTASVVCLLNNFYPREAKVQWKVDNALQSGNSQESVTEQDSKDSTYSLSSTLTLSKADYEKHKVYACEVTHQGLSSPVTKSFNRGECGGGGGSLPETG | binds
GK-1E5 (mAb270) (antibody, human IgG1, Human IgG1/kappa; not shown: Strep tag) heavy: not shown light: DIQLTQSPSTLSASVGDRVTITCRASQSISSWLAWYQQKPGKAPKLLIYKASSLESGVPSRFSGSGSGTEFTLTISSLQPDDFATYYCQQYNNYWTFGQGTKVEIKRTVAAPSVFIFPPSDEQLKSGTASVVCLLNNFYPREAKVQWKVDNALQSGNSQESVTEQDSKDSTYSLSSTLTLSKADYEKHKVYACEVTHQGLSSPVTKSFNRGECGGGGGSLPETG | no binding
MK-3B12 (mAb272) (antibody, human IgG1, Human IgG1/kappa; not shown: Strep tag) heavy: not shown light: DIVMTQSPSTLSASVGDRVTITCRASQSISSWLAWYQQKPGKAPKLLIYKASSLESGVPSRFSGSGSGTEFTLTISSLQPDDFATYYCQQYNNYWTFGQGTKVEIKRTVAAPSVFIFPPSDEQLKSGTASVVCLLNNFYPREAKVQWKVDNALQSGNSQESVTEQDSKDSTYSLSSTLTLSKADYEKHKVYACEVTHQGLSSPVTKSFNRGECGGGGGSLPETG | no binding
GK-2G8 (antibody, human IgG1, Human IgG1/kappa; the molecule is assigned by the clone name; not shown: Strep tag) heavy: not shown light: EIVMTQSPSTLSASVGDRVTITCRASQSISSWLAWYQQKPGKAPKLLIYKASSLESGVPSRFSGSGSGTEFTLTISSLQPDDFATYYCQQYNNYWTFGQGTKVDIKRTVAAPSVFIFPPSDEQLKSGTASVVCLLNNFYPREAKVQWKVDNALQSGNSQESVTEQDSKDSTYSLSSTLTLSKADYEKHKVYACEVTHQGLSSPVTKSFNRGECGGGGGSLPETG | no binding
GK-6B10 (antibody, human IgG1, Human IgG1/kappa; the molecule is assigned by the clone name; not shown: Strep tag) heavy: not shown light: DIVMTQSPSTLSASVGDRVTITCRASQSIDNWLAWYQQKPGKAPKVLIYKASSLESGVPSRFSGSGSGTEFTLTISSLQPDDFATYYCQQYNSYSYTFGQGTKLEIKRTVAAPSVFIFPPSDEQLKSGTASVVCLLNNFYPREAKVQWKVDNALQSGNSQESVTEQDSKDSTYSLSSTLTLSKADYEKHKVYACEVTHQGLSSPVTKSFNRGECGGGGGSLPETG | no binding
MK-7C3 (antibody, human IgG1, Human IgG1/kappa; the molecule is assigned by the clone name; not shown: Strep tag) heavy: not shown light: AIRMTQSPSTLSASVGDRVTITCRASQTISNWLAWFQQKPGKAPKVLIYKASSLESGVPSRFSGSGSGTEFTLTISSLQPDDFASYYCQQYNSYSYTFGQGTRLEIKRTVAAPSVFIFPPSDEQLKSGTASVVCLLNNFYPREAKVQWKVDNALQSGNSQESVTEQDSKDSTYSLSSTLTLSKADYEKHKVYACEVTHQGLSSPVTKSFNRGECGGGGGSLPETG | no binding
GK-5G12 (antibody, human IgG1, Human IgG1/kappa; the molecule is assigned by the clone name; not shown: Strep tag) heavy: not shown light: EIVLTQSPSSLSASVGDRVTITCRASQGISNYLAWYQQKPGKVPKLLIYAASTLQSGVPSRFSGSGSGTDFTLTISSLQPEDVATYYCQKYNSAPYTFGQGTKLEIKRTVAAPSVFIFPPSDEQLKSGTASVVCLLNNFYPREAKVQWKVDNALQSGNSQESVTEQDSKDSTYSLSSTLTLSKADYEKHKVYACEVTHQGLSSPVTKSFNRGECGGGGGSLPETG | no binding

Each binder was assayed against T1, mouse ROR2-TwinStrep (assay: ELISA, panel 'mouse ROR2' (mouse ROR2-TwinStrep 2 µg/mL coated), 4-fold dilutions of purified antibody from 2000 ng/mL, HRP anti-human IgG, OD 490 nm).
Method: as §1

Binder | binding result
GK-22G12 (mAb418) (antibody, human IgG1, Human IgG1/kappa; The light chain tag is printed G5LPETG, perhaps a misprint of G5SLPETG; also called MK-22G12; not shown: TwinStrep tag) heavy: not shown light: DIVMTQSPSSLSASVGDRVTITCRASQGISNYLAWYQQKPGKVPKLLIYAASTLQSGVPSRFSGSGSGTDFTLTISSLQPEDVSTYYCQKHNRAPWTFGQGTKLEIKRTVAAPSVFIFPPSDEQLKSGTASVVCLLNNFYPREAKVQWKVDNALQSGNSQESVTEQDSKDSTYSLSSTLTLSKADYEKHKVYACEVTHQGLSSPVTKSFNRGECGGGGGLPETG | no binding (tested: 2000 ng/mL)
GK-21D3 (mAb399; mAb417) (antibody, human IgG1, also called GK-21D3 (mAb417); MK-21D3; not shown: TwinStrep tag) heavy: not shown light: DIQLTQSPSSLSASIGDRVTITCRASQGISNYLAWYQQKPGKVPKLLIYAASTLQSGVPSRFSGSGSGTDFTLTISSLQPEDVSTYYCQKYNSAPWTFGQGTKVDIKRTVAAPSVFIFPPSDEQLKSGTASVVCLLNNFYPREAKVQWKVDNALQSGNSQESVTEQDSKDSTYSLSSTLTLSKADYEKHKVYACEVTHQGLSSPVTKSFNRGECGGGGGSLPETG | no binding (tested: 2000 ng/mL)
